In the supplement of paper PMC12455559:

Assay: purified protein yield per well (BCA); higher = higher soluble expression
In short: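 Each candidate enzyme was grown in E. coli C41(DE3) in a 2 mL autoinduction culture (100 µg/mL kanamycin; 2 h at 37 °C, then 40 h at 18 °C) and purified robotically via Ni-charged magnetic beads with SUMO protease cleavage. Purified protein yield per well was assessed using the Pierce Rapid Gold BCA kit. Readings below 25 ug (0.1 mg/mL) are beneath the detection threshold.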

Purified protein yield per well, < 25 µg:
NNPAPTPTPTPTPGTPSAYQRGPAPSVSFLQASRGDLSVRTSRVSSFTSGFGGGTIHYPTGTTGTMAAIVVIPGYVSAESSIEWWGPKLASYGFVVMTIDTNSGFDQPPSRARQINSALDYLVSQNSSSRSPVRGMIDTNRLGVVGWSMGGGGTLRVAEEGRIKAAIPLAPWDTTNFRDNYTPTLIFACQSDVIAPVNQHASPFYNQIPSSTDKAFVELSGGSHYCGNGGGVYNNVLGRLGVSWMKRHLDQDTRYDQFLCGPNHESDSRISEYRGNCSN [ESM126]
NPYERGPAPTTASLEASRGPFATSSFTVSRPSGYGAGTVYYPTNAGGTVGAIAIVPGFLARQSSINWWGPRLASHGFVVITIDTNSTFDQPTSRSRQQLAALDQVAALARTSSSPIYNRVDTTRMGVMGWSMGGGGTLISAQNRPSLKAAAPQAPWNNSTNFSSVTVPTLILACESDSTAPVNQHASPFYNSMSRNSKQYLEINNGSHSCANSGNSNQPLIGKRGVAWMKRFMDNDTRYTSFACANPNSTRVSEFRTANCS [ESM076]
NTNVPSQACNLTNANGCDSIAILNLTINQADTLYTNIITCDNYTWDGTTYTNSGIYNNVYTNSNGCDSILLNLITIPGPFSVSNIDESSGIRNGLDYDGATIYYPDNGNYLSSIVIVPGFMNTELTVQNWGPFLASYGIVTMTIGTNALTDSEFQRRDALIDAIISLKDENNRSLSPLFGRLNTSSISVGGFSKGGGGAQLVASLDSSIKAIVALYPFIDNPIVSDFDHNIPTFIISGQLDVIAPPAQHADIHYDLIPNSTKKLKYELSVGTHDALSGPYGGLNQVGERVLSFLGLFLENDSCYCPLLDITPSLSSRSKSAPLTKSLMILPAATDALRAGSKSTSAKLAEAVA [TEP057]
PWTSYSAGATVYYPRTATAPFSAIVFMQPYTGTQAMNYAWGPWFASHGIVYVNYDSTTTLDTVDSRATQQMNAINALKNENNRSASPLYRKLDTSRIGVMGWSMGGGASWINSANSSIKTAMSLAGHSLTAVSIYKSGRYTKCPTMIFSGLLDTTYLGGMGQSEGVYRNIPSGIAKIHYEVRSAGHMAWGSPTSASSNVAKIALAFQKTFLDGDTRWAAYLTQPSDASTWNTASLPSTGGTTPDYPWWYWWR [TEP072]
QAAANPYERGPAPSVSSIEAARGSYAVSQTSVSSLGVTGFGGGTVYYPTSTADGTFGAVVISPGFTATQSSISWLGPRLASQGFVVFTIDTNSTLDQPDSRGRQLLAALDYLTERSSVRTRIDATRLGVMGHSMGGGGTLEAAKSRPSLQAAIPLTGWNTDKSWPELRTPTLVIGADGDTVAPVATHSEPFYTSLPSSLDKAYLELNGATHFTPNSSNTTIAKYSISWLKRFIDDDTRYEQFLCPLPRPSVTIEEYRGNCPHS [TEP116]
QACDSLLLESITNPGPFIVNTIDESLGIRNGPGYNGGTIFYPDHIGNFSSIVLVPGFMNSEFTIQNWGAFFASHGIITMTIGTNALTDTHIQRRDALLDAIVSLKAENERLGSPLYGSIDTSSIAVGGFSKGGGGAMLVPAIDPNIKAIISLYPWLENPTSSDLNHSVPVIIISGELDLIAPPFIHADIHYNLLPNTTMKLKYEVALGSHDIISGPNAGNGEVGVRVISWLQNFLLDDSCYCPILTLIPNTSSSYTTNILCNNTSINISSFNTGSDKKLLKITDIFGRETKEILNKYLLFIYDDGTVEKNIVLE [TEP022]
QAIGPDPTAASLAADGPFAVSTQTASRATGFAGGTIYVPNTAGRYALVAFCPGFTNSQSAVAALGRRLATHGFVVVTMNTNSIFDFPASRATQLIAALNTVAAISTGPVVGKVDSARRMVAGYSMGGGGALIAARGNPSLRGAVALAPWSDSDKNFSTTTVPTAIVAGSADTTASPTDHATVFYNSMPTTTKKLLAIISGATHSFPTTSTPNQPASGYQIAWSKRFADQDVRYGPFLVTDSRLSSFASTGPF [ESM142]
QARDVTAGNPYQRGPDPTVAMIEARTGPFATASASVPAGYGFNGGMVYYPTDTSLGTWGALAIVPGYSALFANEEAWMGPWLASFGFVVIGVETTTRTDSADARGTELLSALNYLTTQSPVRDRVDPNRLSVLGHSAGGAGAMLAAQRQPTLKAAVGLAPGSPVGNLSLATDTVPTMVIGGQNDSVVTPSYLSGLYATMPASTQSAFAQIAGADHVYYTRPNNVETKLLIPWLKTFLDNDTRYVPFLCPAPPDPSSLSMYVPKCPYVPGGSGPGGGGNTGALHAVGAAKCLAAPSSGTPGTQLTIGTCDGQARQTWTRTATDQLTVTTAGATLCLDASGQGGSPGTKAIVWSCNGQANQHWNVNSNGTVTSAQSGLCLDVTGGSTAEGAPVELWTCNGGGNQQWHLG [TEP085]
QDCDSLKISSISNPGPYKVKKILEKDGLRDGPDYYGATLYYPEDATPPFASIVIVPGFWSYEPSIQAWGPFLASHGIVTLTIGTNILSDFPEQRALALLDAAETIKQEIIRESSPLYGSLDPTKIAVSGWSMGGGGAQMAAVLDTTLKAVMALAPWQNTQLTETAFNHPVPTLIFSGEKDPTAPASMHATVHYNYTPQTTSKLLFEIKNGNHSVANTPEGGNGDVGRIAIAWLKNLLVGQPCYCPLLLDPPVSASKYVTNLQCSSIASVSRPDGKDDFSP [TEP159]
QDNPYERGPDPTESLIEASRGPFSVSQTSVSSLVSGFGGGTIYYPTSTSEGTFGAVAISPGFTATESSIAWMGPRLASHGFVVITIDTNTIYDQPSSRGDQLLAALDYMTEDNLTVRGRIDSSRLAVAGHSMGGGGSLEAASSRPALQAAVPLAPWNTDKSWSELRTPTLIIGGESDSIAPVATHSIPFYNSIPASAEKAYLELDNASHFFPQTPNTTQAKYMLSWLKRFVDNDTRYEQFLCPAPDDRDISDYRDTCPHA [TEP150]
QDNSQGRYRPEGRQVGLAIGREFDERLYEVRTYEPEVGAEAFAGAMVFYPLTLSFDPPNGAVAFVPGFRAPASVYEWWGPALASLGYSVFILETNTPTDALAARADALIAAVDLIKAENQNPDAPVANKIDPEKIAIMGHSMGGGASLVAATQMGDSIKAVIPLALYCCEPGQSFSGDYGSLTLPTMIIASAEDEVAPPAEHAKLLYDSIGGSKTYVEFARGDHMFISNSGDQKATLGRFVLAFLKDILDGR [TEP019]
QENPFERGPDPTERSIEAPRGPFATATTTVARGGVQGFGGGTIYYPTDTSEGTFGAVAISPGFTESQSAISWYGQRLASQGFVVFTIDTNGIFDFPDQRGDQLLAALDYLTTHSTVADRIDADRLGVLGHSMGGGGSLSAVDERTELQAAIPLAPWHLNQNWSGVDVPTMIIGGETDFIAPVDTHAEPFYQSLPSSLDKAYLEMKGKGHFVTNSPNTVIAKFAISWLKRFIDNDTRYERFLCPAPSPDAEISEYRDTCPH [TEP078]
QIGPAPTSASLNATAGPLAVSTSTVTVATGFGGGTIYYPSTAGQYGVIAISPGFTATQSSVAWLGRRLATHGFVVITIDTNTTLDQPASRATQLIAALNYVVNSASSTVRSRVDPNRRAVAGHSMGGGGALIAAENNPSLKASLPLTPWNLSSSFTQVRVPTLIVGSDGDAVAPVAVHARPFYASLPGTTYKAYAELNLATHFTPNSTNTPIGRYGVTWMKRFVDADTRYSSFLCGADHQAYATALVFDRYSQNCPY [ESM116]
QIGPDPTSASLNATAGSFAVSTSNVTLARGFGGGTIYYPTTAGRYGVVAISPGFTATQSSIAWLGRRLATHGLVVITMNTNSTLDQPASRATQLMAALNYVVNSASSTVRARVDSTRLAVAGHSMGGGGALIAAEDNPTLKAALPLTPWNLSTSFTQVRVPTLIVGADGDTVASVAAHARPFYASLPASTFKAYAELNGATHFTPNSTNTPIGRYGVTWMKRFVDADTRYSPFLCGAAHTAYATALVFDRYNQNCPY [ESM068]
QIGPDPTSSSLNATSGPFAVSTSNVVLARGFGGGTIYYPTTTGRYGVVAISPGFTATESSVAWLGRRLATHGLVVITINTNSTLDQPASRATQLMAALNHVVNSASSTVRSRVDSTRLAVAGHSMGGGGALIAAENNPTLKAALPLTPWNLSSSFTQVQVPTLIVGADGDSVASVAVHARPFYASLPATTFKAYAELNGASHFTPNSTNTPIGRYGTAWMKRFVDADSRYSPFLCGAPHEAYATALVFDRYNQNCPY [DP027]
